Laboratory results from publication doi:10.1101/2025.01.21.634180.

Target: GIV (Gα-interacting vesicle-associated protein, also known as Girdin), endogenous (human (endogenous in THP1)) (UniProt Q3V6T2)
Sequence of UniProt Q3V6T2 (Q3V6T2 whole entry): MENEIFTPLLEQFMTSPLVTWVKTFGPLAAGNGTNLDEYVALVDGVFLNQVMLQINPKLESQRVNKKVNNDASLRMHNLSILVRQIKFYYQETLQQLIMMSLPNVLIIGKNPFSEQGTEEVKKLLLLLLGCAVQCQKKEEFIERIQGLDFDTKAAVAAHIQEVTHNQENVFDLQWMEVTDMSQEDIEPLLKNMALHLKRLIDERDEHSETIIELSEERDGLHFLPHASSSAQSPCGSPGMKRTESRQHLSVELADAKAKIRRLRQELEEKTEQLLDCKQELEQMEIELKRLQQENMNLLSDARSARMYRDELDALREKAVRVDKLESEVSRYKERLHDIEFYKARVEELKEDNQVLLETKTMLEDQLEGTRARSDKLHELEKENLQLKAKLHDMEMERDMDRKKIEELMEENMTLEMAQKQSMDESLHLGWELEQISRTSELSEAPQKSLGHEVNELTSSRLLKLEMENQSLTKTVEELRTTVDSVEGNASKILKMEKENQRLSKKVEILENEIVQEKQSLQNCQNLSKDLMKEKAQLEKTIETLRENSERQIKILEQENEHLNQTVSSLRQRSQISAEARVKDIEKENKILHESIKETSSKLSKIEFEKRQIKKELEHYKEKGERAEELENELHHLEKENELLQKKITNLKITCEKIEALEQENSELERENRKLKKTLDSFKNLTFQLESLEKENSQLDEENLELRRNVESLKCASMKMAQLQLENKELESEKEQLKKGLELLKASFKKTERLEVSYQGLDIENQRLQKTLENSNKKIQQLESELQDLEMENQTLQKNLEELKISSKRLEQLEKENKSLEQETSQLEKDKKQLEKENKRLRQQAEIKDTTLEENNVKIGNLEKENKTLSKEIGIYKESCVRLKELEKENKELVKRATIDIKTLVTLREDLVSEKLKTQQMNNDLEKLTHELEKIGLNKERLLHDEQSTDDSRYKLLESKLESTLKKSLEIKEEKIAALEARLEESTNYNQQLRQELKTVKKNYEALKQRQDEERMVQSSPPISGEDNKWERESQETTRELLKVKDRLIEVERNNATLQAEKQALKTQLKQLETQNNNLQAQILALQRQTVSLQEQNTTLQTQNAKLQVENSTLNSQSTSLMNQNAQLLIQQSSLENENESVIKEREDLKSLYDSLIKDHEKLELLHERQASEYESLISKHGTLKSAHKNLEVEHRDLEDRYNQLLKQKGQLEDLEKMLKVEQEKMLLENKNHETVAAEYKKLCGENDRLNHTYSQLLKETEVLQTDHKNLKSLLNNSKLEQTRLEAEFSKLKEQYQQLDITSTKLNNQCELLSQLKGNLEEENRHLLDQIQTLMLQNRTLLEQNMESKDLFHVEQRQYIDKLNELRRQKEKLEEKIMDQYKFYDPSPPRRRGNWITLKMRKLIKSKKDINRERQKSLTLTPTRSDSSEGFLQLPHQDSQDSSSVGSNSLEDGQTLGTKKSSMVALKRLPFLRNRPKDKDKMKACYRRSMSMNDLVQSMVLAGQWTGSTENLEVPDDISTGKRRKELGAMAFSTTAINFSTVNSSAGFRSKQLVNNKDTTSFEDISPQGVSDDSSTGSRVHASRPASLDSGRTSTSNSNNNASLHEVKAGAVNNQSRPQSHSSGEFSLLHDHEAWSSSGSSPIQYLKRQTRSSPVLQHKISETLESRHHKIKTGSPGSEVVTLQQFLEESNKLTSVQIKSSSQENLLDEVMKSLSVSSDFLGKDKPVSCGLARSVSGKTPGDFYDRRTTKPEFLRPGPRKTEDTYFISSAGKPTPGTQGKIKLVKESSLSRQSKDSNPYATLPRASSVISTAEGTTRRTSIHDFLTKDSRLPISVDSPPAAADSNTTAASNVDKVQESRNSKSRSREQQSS

- suppression of LPS (100 ng/ml)-induced NFκB activation by MDP (10 μg/ml) pretreatment, luciferase reporter assay in HeLa cells transfected with NOD2-1007fs (% protection): 20%
Substance: HA-tagged NOD2–1007fs (from UniProt Q9HC29 1-1040) (natural protein)
